Measurements: paper PMC11395145, “The Archetypal Gamma-Core Motif of Antimicrobial Cys-Rich Peptides Inhibits H^+-ATPases in Target Pathogens” (International Journal of Molecular Sciences, 2024)

Tests used:
[1] = tested on: Candida albicans ATCC 10231; experiment: Microbicidal (spread-plate cell viability) assay, candidacidal activity; assay type: cell-based
Procedure: (§1) First, we tested the antimicrobial activity of Kal-1 and a shorter Kal-1-derived peptide (Kdp15), both containing the complete γ-core signature of human lactoferrin, against C. albicans and P. aeruginosa. Microbicidal (cidal) activity was determined after 90 min of incubation (37 °C; pH 7.4) with a range of concentrations of each hLf-derived peptide.
(§2) Figure 1 Cell viability and membrane permeabilization assays. C. albicans or P. aeruginosa (10^6 cells/mL) were incubated (90 min, 37 °C) with each peptide/protein at the indicated concentrations. Aliquots were plated on SDA or […], and colonies were counted after 24–48 h (C. albicans) or 24 h (P. aeruginosa). At each point, samples were stained with propidium iodide (PI) and intracellular PI incorporation, indicative of membrane permeabilization, was quantified by flow cytometry. The relative cell viability (blue lines) and cellular permeabilization (red lines) were calculated as the percentage of untreated cells. Human lactoferrin (hLf) and the peptide Lfpep were used as negative and positive controls of cellular permeabilization, respectively.
Microbial susceptibility to the peptides was determined in a spread-plate assay as described previously. Briefly, two-fold serially diluted peptides were incubated (37 °C) with approximately 10^6 cells/mL in Tris buffer (10 mM Tris-HCl, pH 7.4). After 90 min of incubation with the peptides, aliquots were removed and plated in duplicate on an appropriate agar plate for each species (SDA for C. albicans, TSA for P. aeruginosa). The plates were incubated for 24–48 h at 30 °C (C. albicans) or 24 h at 37 °C (P. aeruginosa) for enumeration. The cell viability values, expressed as colony forming units (CFUs), were determined relative to incubation without added peptides and represent the mean ± standard deviation (±SD) of at least three independent determinations. For inhibition assays, the cell suspensions were preincubated (15 min at 37 °C) with the corresponding inhibitors before the addition of peptides. […]

[2] = tested on: Pseudomonas aeruginosa 10145 (PAO1); experiment: Microbicidal (spread-plate cell viability) assay, pseudomonacidal activity; assay type: cell-based; details: Tris buffer with 50 mM KCl vs without
Procedure: as §1
as §2, with “Human lactoferrin (hLf) and the peptide Lfpep were used as negative and positive controls of cellular permeabilization, respectively.” left out
Microbial susceptibility to the peptides was determined in a spread-plate assay as described previously. […] The cell viability values, expressed as colony forming units (CFUs), were determined relative to incubation without added peptides and represent the mean ± standard deviation (±SD) of at least three independent determinations. […]

C. albicans cells [3] = experiment: Cell membrane permeability assay (propidium iodide, flow cytometry); assay type: cell-based, Candida albicans; details: 90 min, 37 °C, range of concentrations, PI 9 μM
Procedure: (§3) To determine whether Kal-1 and Kdp15 exert a permeabilizing effect on fungal or bacterial membranes, the cellular influx of the fluorescent nucleic-acid-binding dye propidium iodide (PI) was assessed. As PI itself cannot permeate through an intact phospholipid bilayer, only permeabilized cells take up PI, resulting in DNA intercalation and fluorescence.
(§4) Flow cytometry was used to assess the ability of peptides to permeabilize plasma membranes of cells in incorporation of the DNA intercalating dye propidium iodide (PI). C. albicans or P. aeruginosa cells (10^6 cells/mL) in Tris buffer were incubated with two-fold serially diluted peptides for 90 min at 37 °C and subsequently reincubated with PI (9 μM, final concentration) for 5 min. The suspensions were centrifuged at 1100× g for 10 min and subsequently washed with Tris buffer to remove any unbound PI. The peptide Lfpep was used to disrupt the cytoplasmic membrane (positive control). Cell fluorescence was monitored using a Cytomics FC500 Flow Cytometer (Beckman Coulter Life Sciences, Indianapolis, IN, USA). The PI fluorescence was excited at a wavelength of 488 nm and emission was registered at 610 nm. For each treatment, 20,000 events were measured. Data were acquired and analyzed using CytExpert 2.1 software. Results were expressed as the percentage of PI-positive cells with respect to the unstained cells (control). […]

P. aeruginosa cells [4] = experiment: as above; assay type: cell-based, Pseudomonas aeruginosa; details: 90 min, 37 °C, range of concentrations, PI 9 μM
Procedure: as §3, §4

C. albicans cells [5] = experiment: Oxygen consumption measurement (Clark-type electrode); assay type: cell-based, Candida albicans; details: 5 × 10^6 cells/mL, peptides at IC50, piericidin A 32 μM, at least 30 min, 25 °C
Procedure: (§5) Figure 3 Effect of cellular respiration on the microbicidal activity of hLf γ-core-containing peptides. (A,C) Oxygen consumption was measured in C. albicans and P. aeruginosa cellular suspensions in the absence (control) or the presence of kaliocin-1 (Kal-1), Kdp15, or human lactoferrin (hLf), and piericidin A (positive control). (B,D) Effect of cellular respiration on the microbicidal activity of hLf γ-core-containing peptides. Cells (10^6 cells/mL) were pre-incubated (15 min, 37 °C) with 32 μM piericidin A and incubated for 90 min at 37 °C with the peptides hLf or BM2. The cell viability was determined by means of the plate counting method. The results are the mean ± SD from duplicates of at least three independent experiments. * p < 0.05, ** p < 0.01, and *** p < 0.001 were used.
(§6) C. albicans or P. aeruginosa cells were grown to the mid-logarithmic phase, washed twice in Tris buffer, and resuspended in the same buffer, as described in [9, 10]. Briefly, cells (5 × 10^6 cells/mL) were pre-incubated for 15 min at 37 °C with the peptides (IC50). […] Oxygen consumption was measured using a Clark-type oxygen electrode (Dual digital-model 20, Rank Brothers Ltd., Cambridge, UK) in a closed jacketed chamber maintained at 25 °C. […] The viability of the cells was determined at 30 min by removing aliquots from the oxygen chambers and plating the subsequent dilutions on SDA or TSA plates.

P. aeruginosa cells [6] = experiment: as above; assay type: cell-based, Pseudomonas aeruginosa; details: 5 × 10^6 cells/mL, peptides at IC50, piericidin A 32 μM, at least 30 min, 25 °C
Procedure: as §5, §6

C. albicans cells [7] = experiment: Measurement of intracellular ATP (BacTiter-Glo); assay type: cell-based, Candida albicans; details: C. albicans 10^6 cells/mL, candidacidal concentration, 90 min, 37 °C; BM2 0.25 μM
Procedure: Total ATP was measured by using the BacTiter-Glo^TM Microbial Cell Viability Assay (Promega Co., Madison, WI, USA) according to the manufacturer’s instructions. […] Aliquots (100 μL) were incubated (90 min at 37 °C) with kaliocin-1, Kdp15, or human lactoferrin and the BM2 peptide (positive control). One hundred microliters of incubation mix was transferred into a 96-well opaque white plate, mixed with an equal volume of the BacTiter-Glo reagent, and incubated for 15 min in the dark. The reagent used a thermostable luciferase to produce luminescence in an ATP-dependent manner. The emitted luminescence was detected by using a Varioskan Flash multimode reader (Thermo Scientific, Waltham, MA, USA) with a 10 s of shaking and 1 s integration time. A calibration curve was prepared for each experiment, with ATP standards ranging from 1 to 1000 nM. For assays performed in the presence of the BM2 peptide, samples were preincubated with 0.25 μM BM2 for 30 min at 37 °C. All the tests were performed in triplicate at least four times.

[8] = tested on: Candida albicans ATCC 10231; details: used in control assays; cited from earlier work
Procedure: (§7) First, we tested the antimicrobial activity of Kal-1 and a shorter Kal-1-derived peptide (Kdp15), both containing the complete γ-core signature of human lactoferrin, against C. albicans and P. aeruginosa. Microbicidal (cidal) activity was determined after 90 min of incubation (37 °C; pH 7.4) with a range of concentrations of each hLf-derived peptide. The hLf γ-core-containing peptides were microbicidal in a concentration-dependent way (Figure 1). […] The IC50 es ...

[9] = tested on: Pseudomonas aeruginosa 10145 (PAO1); details: used in control assays; cited from earlier work
Procedure: as §7

B1: hLf: Recombinant human apo-lactoferrin, PM H^+-ATPase inhibitor control (protein, UniProt P02788 20-710, looked up)
Lactotransferrin: GRRRSVQWCAVSQPEATKCFQWQRNMRKVRGPPVSCIKRDSPIQCIQAIAENRADAVTLDGGFIYEAGLAPYKLRPVAAEVYGTERQPRTHYYAVAVVKKGGSFQLNELQGLKSCHTGLRRTAGWNVPIGTLRPFLNWTGPPEPIEAAVARFFSASCVPGADKGQFPNLCRLCAGTGENKCAFSSQEPYFSYSGAFKCLRDGAGDVAFIRESTVFEDLSDEAERDEYELLCPDNTRKPVDKFKDCHLARVPSHAVVARSVNGKEDAIWNLLRQAQEKFGKDKSPKFQLFGSPSGQKDLLFKDSAIGFSRVPPRIDSGLYLGSGYFTAIQNLRKSEEEVAARRARVVWCAVGEQELRKCNQWSGLSEGSVTCSSASTTEDCIALVLKGEADAMSLDGGYVYTAGKCGLVPVLAENYKSQQSSDPDPNCVDRPVEGYLAVAVVRRSDTSLTWNSVKGKKSCHTAVDRTAGWNIPMGLLFNQTGSCKFDEYFSQSCAPGSDPRSNLCALCIGDEQGENKCVPNSNERYYGYTGAFRCLAENAGDVAFVKDVTVLQNTDGNNNEAWAKDLKLADFALLCLDGKRKPVTEARSCHLAMAPNHAVVSRMDKVERLKQVLLHQQAKFGRNGSDCPDKFCLFQSETKNLLFNDNTECLARLHGKTTYEKYLGPQYVAGITNLKKCSTSPLLEACEFLRK
modifications: apo form
In the case of B1, the IC50 ([1]; 90 min, 37 °C, 10 mM Tris-HCl pH 7.4, 10^6 cells/mL, CFU plating, estimated, read-out: IC50 (concentration that caused 50% reduction in viable counts) against C. albicans) is reported as 3 µM, the “effect of high external K^+ on candidacidal activity” value ([1]; Tris buffer with 50 mM KCl vs without) is reported as “seemed to protect” and the “effect of Tok1p K^+ channel block (TEA^+) on candidacidal activity” value ([1]; cells pre-incubated 15 min with 10 mM TEA^+) is reported as “less susceptible”. For the same molecule, the “effect of high external K^+ on pseudomonacidal activity” value [2] was “seemed to protect”, the “PI fluorescent cells (plasma membrane permeabilization), C. albicans” value (C. albicans cells [3]) was “not significantly increased” and the “PI fluorescent cells (plasma membrane permeabilization), P. aeruginosa” value (P. aeruginosa cells [4]) was “not significantly increased”. The “oxygen consumption of C. albicans in presence of the substance” value (C. albicans cells [5]) was “inability of the native protein hLf to inhibit”, the “oxygen consumption of P. aeruginosa in presence of the substance” value (P. aeruginosa cells [6]) was “inability of the native protein hLf to inhibit” and the “increment in intracellular ATP (iATP) level compared to untreated control” value (C. albicans cells [7]) was ~ 6 fold. For the same molecule, the “previously reported microbicidal concentration against C. albicans” value [8] was 5 µM and the “previously reported microbicidal concentration against P. aeruginosa” value [9] was 1 µM.
